B1: full-length KGD from Mycobacterium smegmatis (enzyme, UniProt A0R2B1 1-1227, looked up)
chain: MSSSPSPFGQNEWLVEEMYRKFRDDPSSVDPSWHEFLVDYSPEPTTDSASNGRTTTAAPVTPPTPAPAPAPEPKAAPKPAAKTEAKPAKPAKSATPAKGDESQILRGAAAAVVKNMNASLEVPTATSVRAIPAKLMIDNRVVINNHLKRTRGGKISFTHLLGYAIVQAVKKFPNMNRHFAVVDGKPTAITPAHTNLGLAIDLQGKDGNRSLVVAAIKRCETMRFGQFIAAYEDIVRRARDGKLTAEDFSGVTISLTNPGTLGTVHSVPRLMQGQGAIIGAGAMEYPAEFQGASEERIADLGIGKLITLTSTYDHRIIQGAESGDFLRTIHQLLLDDDFFDEIFRELGIPYEPVRWRTDNPDSIEDKNARVIELIAAYRNRGHLMADIDPLRLDNTRFRSHPDLDVNSHGLTLWDLDREFKVDGFAGVQRKKLRDILSVLRDAYCRHVGVEYTHILEPEQQRWIQERVETKHDKPTVAEQKYILSKLNAAEAFETFLQTKYVGQKRFSLEGAETVIPMMDAVIDQCAEHGLDEVVIAMPHRGRLNVLANIVGKPYSQIFSEFEGNLNPSQAHGSGDVKYHLGATGTYIQMFGDNDIEVSLTANPSHLEAVDPVLEGLVRAKQDLLDTGEEGSDNRFSVVPLMLHGDAAFAGQGVVAETLNLALLRGYRTGGTIHIVVNNQIGFTTAPTDSRSSEYCTDVAKMIGAPIFHVNGDDPEACAWVARLAVDFRQAFKKDVVIDMLCYRRRGHNEGDDPSMTQPYMYDVIDTKRGSRKAYTEALIGRGDISMKEAEDALRDYQGQLERVFNEVRELEKHEIEPSESVEADQQIPSKLATAVDKAMLQRIGDAHLALPEGFTVHPRVRPVLEKRREMAYEGRIDWAFAELLALGSLIAEGKLVRLSGQDTQRGTFTQRHAVIVDRKTGEEFTPLQLLATNPDGTPTGGKFLVYNSALSEFAAVGFEYGYSVGNPDAMVLWEAQFGDFVNGAQSIIDEFISSGEAKWGQLSDVVLLLPHGHEGQGPDHTSGRIERFLQLWAEGSMTIAMPSTPANYFHLLRRHGKDGIQRPLIVFTPKSMLRNKAAVSDIRDFTESKFRSVLEEPMYTDGEGDRNKVTRLLLTSGKIYYELAARKAKENREDVAIVRIEQLAPLPRRRLAETLDRYPNVKEKFWVQEEPANQGAWPSFGLTLPEILPDHFTGLKRISRRAMSAPSSGSSKVHAVEQQEILDTAFG
B2: OdhI from Corynebacterium glutamicum ATCC13032 (natural protein, UniProt Q8NQJ3 1-143, looked up)
chain: MSDNNGTPEPQVETTSVFRADLLKEMESSTGTAPASTGAENLPAGSALLVVKRGPNAGARFLLDQPTTTAGRHPESDIFLDDVTVSRRHAEFRINEGEFEVVDVGSLNGTYVNREPRNAQVMQTGDEIQIGKFRLVFLAGPAE
B3: full-length OdhA from Corynebacterium glutamicum ATCC13032 (enzyme, UniProt Q8NRC3 1-1221, looked up)
chain: MSSASTFGQNAWLVDEMFQQFQKDPKSVDKEWRELFEAQGGPNTTPATTEAQPSAPKESAKPAPKAAPAAKAAPRVETKPADKTAPKAKESSVPQQPKLPEPGQTPIRGIFKSIAKNMDISLEIPTATSVRDMPARLMFENRAMVNDQLKRTRGGKISFTHIIGYAMVKAVMAHPDMNNSYDVIDGKPTLIVPEHINLGLAIDLPQKDGSRALVVAAIKETEKMNFSEFLAAYEDIVARSRKGKLTMDDYQGVTVSLTNPGGIGTRHSVPRLTKGQGTIIGVGSMDYPAEFQGASEDRLAELGVGKLVTITSTYDHRVIQGAVSGEFLRTMSRLLTDDSFWDEIFDAMNVPYTPMRWAQDVPNTGVDKNTRVMQLIEAYRSRGHLIADTNPLSWVQPGMPVPDHRDLDIETHNLTIWDLDRTFNVGGFGGKETMTLREVLSRLRAAYTLKVGSEYTHILDRDERTWLQDRLEAGMPKPTQAEQKYILQKLNAAEAFENFLQTKYVGQKRFSLEGAEALIPLMDSAIDTAAGQGLDEVVIGMPHRGRLNVLFNIVGKPLASIFNEFEGQMEQGQIGGSGDVKYHLGSEGQHLQMFGDGEIKVSLTANPSHLEAVNPVMEGIVRAKQDYLDKGVDGKTVVPLLLHGDAAFAGLGIVPETINLAKLRGYDVGGTIHIVVNNQIGFTTTPDSSRSMHYATDYAKAFGCPVFHVNGDDPEAVVWVGQLATEYRRRFGKDVFIDLVCYRLRGHNEADDPSMTQPKMYELITGRETVRAQYTEDLLGRGDLSNEDAEAVVRDFHDQMESVFNEVKEGGKKQAEAQTGITGSQKLPHGLETNISREELLELGQAFANTPEGFNYHPRVAPVAKKRVSSVTEGGIDWAWGELLAFGSLANSGRLVRLAGEDSRRGTFTQRHAVAIDPATAEEFNPLHELAQSKGNNGKFLVYNSALTEYAGMGFEYGYSVGNEDSIVAWEAQFGDFANGAQTIIDEYVSSGEAKWGQTSKLILLLPHGYEGQGPDHSSARIERFLQLCAEGSMTVAQPSTPANHFHLLRRHALSDLKRPLVIFTPKSMLRNKAAASAPEDFTEVTKFQSVINDPNVADAAKVKKVMLVSGKLYYELAKRKEKDGRDDIAIVRIEMLHPIPFNRISEALAGYPNAEEVLFVQDEPANQGPWPFYQEHLPELIPNMPKMRRVSRRAQSSTATGVAKVHQLEEKQLIDEAFEA
B4: OdhAΔ97 (domain or fragment, Corynebacterium glutamicum ATCC13032, UniProt Q8NRC3 98-1221, looked up)
chain: KLPEPGQTPIRGIFKSIAKNMDISLEIPTATSVRDMPARLMFENRAMVNDQLKRTRGGKISFTHIIGYAMVKAVMAHPDMNNSYDVIDGKPTLIVPEHINLGLAIDLPQKDGSRALVVAAIKETEKMNFSEFLAAYEDIVARSRKGKLTMDDYQGVTVSLTNPGGIGTRHSVPRLTKGQGTIIGVGSMDYPAEFQGASEDRLAELGVGKLVTITSTYDHRVIQGAVSGEFLRTMSRLLTDDSFWDEIFDAMNVPYTPMRWAQDVPNTGVDKNTRVMQLIEAYRSRGHLIADTNPLSWVQPGMPVPDHRDLDIETHNLTIWDLDRTFNVGGFGGKETMTLREVLSRLRAAYTLKVGSEYTHILDRDERTWLQDRLEAGMPKPTQAEQKYILQKLNAAEAFENFLQTKYVGQKRFSLEGAEALIPLMDSAIDTAAGQGLDEVVIGMPHRGRLNVLFNIVGKPLASIFNEFEGQMEQGQIGGSGDVKYHLGSEGQHLQMFGDGEIKVSLTANPSHLEAVNPVMEGIVRAKQDYLDKGVDGKTVVPLLLHGDAAFAGLGIVPETINLAKLRGYDVGGTIHIVVNNQIGFTTTPDSSRSMHYATDYAKAFGCPVFHVNGDDPEAVVWVGQLATEYRRRFGKDVFIDLVCYRLRGHNEADDPSMTQPKMYELITGRETVRAQYTEDLLGRGDLSNEDAEAVVRDFHDQMESVFNEVKEGGKKQAEAQTGITGSQKLPHGLETNISREELLELGQAFANTPEGFNYHPRVAPVAKKRVSSVTEGGIDWAWGELLAFGSLANSGRLVRLAGEDSRRGTFTQRHAVAIDPATAEEFNPLHELAQSKGNNGKFLVYNSALTEYAGMGFEYGYSVGNEDSIVAWEAQFGDFANGAQTIIDEYVSSGEAKWGQTSKLILLLPHGYEGQGPDHSSARIERFLQLCAEGSMTVAQPSTPANHFHLLRRHALSDLKRPLVIFTPKSMLRNKAAASAPEDFTEVTKFQSVINDPNVADAAKVKKVMLVSGKLYYELAKRKEKDGRDDIAIVRIEMLHPIPFNRISEALAGYPNAEEVLFVQDEPANQGPWPFYQEHLPELIPNMPKMRRVSRRAQSSTATGVAKVHQLEEKQLIDEAFEA

Legend:
crystal structure [1] = target: the molecule itself; assay: crystal structure
[2] = target: B3; assay: cryo-EM structure
AUC = target: the molecule itself; assay: AUC
crystal structure [3] = target: the molecule itself; assay: crystal structure; remark: listed apart in the source

**Q.** Which “stoichiometry N” value (crystal structure [1]) does the source give for B1 here?
**A.** 6

**Q.** For B2, which “stoichiometry N” value [2] is on record?
**A.** 1

**Q.** How did the “stoichiometry N” value (AUC) turn out when B3 was run?
**A.** 6

**Q.** How did the “stoichiometry N” value (crystal structure [3]) turn out when B4 was run?
**A.** 6
